Laboratory results reported in the RNAGym collection of RNA variant scans (doi:10.1093/nar/gkz1192).

B1: CPEB3 Ribozyme (parent)
chain: UAACAGGGGGCCACAGCAGAAGCGUUCACGUCGCAGCCCCUGUCAGAUUCUGGUGAAUCUGCGAAUUCUGCUGUAUAUCUC

Variants of: B1
Assay: self-cleavage, relative activity (ratio to wild type); higher = more cleavage; in vitro, sequencing
Summary of the method: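 Libraries of CPEB3 self-cleaving ribozyme mutants came from rounds of error-prone PCR and carried barcodes, which DNA sequencing matched to variants. In vitro transcription used T7 RNA polymerase at 37°C for 5 hours, with a further 15 min in DNase I before EDTA stopped the reaction; the ribozymes cleaved during both steps. The RNA was reverse transcribed with template switching and sequenced on Illumina. Relative activity is the cleaved/total read fraction of a variant divided by that of the unmutated ribozyme, averaged over three batches with at least 5 reads.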

Variant	self-cleavage
UAACAGUGGGCCGCAGCAGAAGCGUUCACGUCGCAGCCCCUGUCAGAUUCUGGUGAAUCUGCGAAUUCUGCUGUAUAUCUC	0.18
UAACAGUGGGCCUCAGCAGAAGCGUUCACGUCGCAGCCCCUGUCAGAUUCUGGUGAAUCUGCGAAUUCUGCUGUAUAUCUC	0.34
UAACAGUGGGCCACGGCAGAAGCGUUCACGUCGCAGCCCCUGUCAGAUUCUGGUGAAUCUGCGAAUUCUGCUGUAUAUCUC	0.27
UAACAGUGGGCCACUGCAGAAGCGUUCACGUCGCAGCCCCUGUCAGAUUCUGGUGAAUCUGCGAAUUCUGCUGUAUAUCUC	0.23
UAACAGUGGGCCACAGCGGAAGCGUUCACGUCGCAGCCCCUGUCAGAUUCUGGUGAAUCUGCGAAUUCUGCUGUAUAUCUC	0.19
UAACAGUGGGCCACAGCAGGAGCGUUCACGUCGCAGCCCCUGUCAGAUUCUGGUGAAUCUGCGAAUUCUGCUGUAUAUCUC	0.27
UAACAGUGGGCCACAGCAGUAGCGUUCACGUCGCAGCCCCUGUCAGAUUCUGGUGAAUCUGCGAAUUCUGCUGUAUAUCUC	0.11
UAACAGUGGGCCACAGCAGAGGCGUUCACGUCGCAGCCCCUGUCAGAUUCUGGUGAAUCUGCGAAUUCUGCUGUAUAUCUC	0.31
UAACAGUGGGCCACAGCAGAUGCGUUCACGUCGCAGCCCCUGUCAGAUUCUGGUGAAUCUGCGAAUUCUGCUGUAUAUCUC	0.34
UAACAGUGGGCCACAGCAGAAGCGUUCACGUCGCGGCCCCUGUCAGAUUCUGGUGAAUCUGCGAAUUCUGCUGUAUAUCUC	0.14
UAACAGUGGGCCACAGCAGAAGCGUUCACGUCGCUGCCCCUGUCAGAUUCUGGUGAAUCUGCGAAUUCUGCUGUAUAUCUC	0.38
UAACAGUGGGCCACAGCAGAAGCGUUCACGUCGCAGCCCCUGUCCGAUUCUGGUGAAUCUGCGAAUUCUGCUGUAUAUCUC	0.2
UAACAGUGGGCCACAGCAGAAGCGUUCACGUCGCAGCCCCUGUCGGAUUCUGGUGAAUCUGCGAAUUCUGCUGUAUAUCUC	0.22
UAACAGUGGGCCACAGCAGAAGCGUUCACGUCGCAGCCCCUGUCUGAUUCUGGUGAAUCUGCGAAUUCUGCUGUAUAUCUC	0.14
UAACAGUGGGCCACAGCAGAAGCGUUCACGUCGCAGCCCCUGUCAGCUUCUGGUGAAUCUGCGAAUUCUGCUGUAUAUCUC	0.37
UAACAGUGGGCCACAGCAGAAGCGUUCACGUCGCAGCCCCUGUCAGGUUCUGGUGAAUCUGCGAAUUCUGCUGUAUAUCUC	0.29
UAACAGUGGGCCACAGCAGAAGCGUUCACGUCGCAGCCCCUGUCAGAUUCUGGUGGAUCUGCGAAUUCUGCUGUAUAUCUC	0.23
UAACAGUGGGCCACAGCAGAAGCGUUCACGUCGCAGCCCCUGUCAGAUUCUGGUGUAUCUGCGAAUUCUGCUGUAUAUCUC	0.16
UAACAGUGGGCCACAGCAGAAGCGUUCACGUCGCAGCCCCUGUCAGAUUCUGGUGAGUCUGCGAAUUCUGCUGUAUAUCUC	0.19
UAACAGUGGGCCACAGCAGAAGCGUUCACGUCGCAGCCCCUGUCAGAUUCUGGUGAAUCUGCGCAUUCUGCUGUAUAUCUC	0.13
UAACAGUGGGCCACAGCAGAAGCGUUCACGUCGCAGCCCCUGUCAGAUUCUGGUGAAUCUGCGGAUUCUGCUGUAUAUCUC	0.14
UAACAGUGGGCCACAGCAGAAGCGUUCACGUCGCAGCCCCUGUCAGAUUCUGGUGAAUCUGCGUAUUCUGCUGUAUAUCUC	0.13
UAACAGUGGGCCACAGCAGAAGCGUUCACGUCGCAGCCCCUGUCAGAUUCUGGUGAAUCUGCGAGUUCUGCUGUAUAUCUC	0.4

Variant	self-cleavage
UAACAGUGGGCCACAGCAGAAGCGUUCACGUCGCAGCCCCUGUCAGAUUCUGGUGAAUCUGCGAAUUCUGCUGUGUAUCUC	0.2
UAACAGUGGGCCACAGCAGAAGCGUUCACGUCGCAGCCCCUGUCAGAUUCUGGUGAAUCUGCGAAUUCUGCUGUUUAUCUC	0.13
UAACAGUGGGCCACAGUAGAAGCGUUCACGUCGCAGCCCCUGUCAGAUUCUGGUGAAUCUGCGAAUUCUGCUGUAUAUCUC	0.2
UAACAGUGGGCCACAGCAGAAGCGUUCAUGUCGCAGCCCCUGUCAGAUUCUGGUGAAUCUGCGAAUUCUGCUGUAUAUCUC	0.09
UAACAGUGGGCCACAGCAGAAGCGUUCACGUUGCAGCCCCUGUCAGAUUCUGGUGAAUCUGCGAAUUCUGCUGUAUAUCUC	0.07
UAACAGUGGGCCACAGCAGAAGCGUUCACGUCGUAGCCCCUGUCAGAUUCUGGUGAAUCUGCGAAUUCUGCUGUAUAUCUC	0.07
UAACAGUGGGCCACAGCAGAAGCGUUCACGUCGCAGACCCUGUCAGAUUCUGGUGAAUCUGCGAAUUCUGCUGUAUAUCUC	0.17
UAACAGUGGGCCACAGCAGAAGCGUUCACGUCGCAGGCCCUGUCAGAUUCUGGUGAAUCUGCGAAUUCUGCUGUAUAUCUC	0.53
UAACAGUGGGCCACAGCAGAAGCGUUCACGUCGCAGCCUCUGUCAGAUUCUGGUGAAUCUGCGAAUUCUGCUGUAUAUCUC	0.19
UAACAGUGGGCCACAGCAGAAGCGUUCACGUCGCAGCCCCUGUCAGAUUAUGGUGAAUCUGCGAAUUCUGCUGUAUAUCUC	0.06
UAACAGUGGGCCACAGCAGAAGCGUUCACGUCGCAGCCCCUGUCAGAUUCUGGUGAAUCUGGGAAUUCUGCUGUAUAUCUC	0.17
UAACAGUGGGCCACAGCAGAAGCGUUCACGUCGCAGCCCCUGUCAGAUUCUGGUGAAUCUGUGAAUUCUGCUGUAUAUCUC	0.21
UAACAGUGGGCCACAGCAGAAGCGUUCACGUCGCAGCCCCUGUCAGAUUCUGGUGAAUCUGCGAAUUCUGCUGUAUAUAUC	0.28
UAACAGUGGGCCACAGCAGAAGCAUUCACGUCGCAGCCCCUGUCAGAUUCUGGUGAAUCUGCGAAUUCUGCUGUAUAUCUC	0.22
UAACAGUGGGCCACAGCAGAAGCGUUCACAUCGCAGCCCCUGUCAGAUUCUGGUGAAUCUGCGAAUUCUGCUGUAUAUCUC	0.16
UAACAGUGGGCCACAGCAGAAGCGUUCACGUCACAGCCCCUGUCAGAUUCUGGUGAAUCUGCGAAUUCUGCUGUAUAUCUC	0.11
UAACAGUGGGCCACAGCAGAAGCGUUCACGUCGCACCCCCUGUCAGAUUCUGGUGAAUCUGCGAAUUCUGCUGUAUAUCUC	0.14
UAACAGUGGGCCACAGCAGAAGCGUUCACGUCGCAGCCCCUUUCAGAUUCUGGUGAAUCUGCGAAUUCUGCUGUAUAUCUC	0.14
UAACAGUGGGCCACAGCAGAAGCGUUCACGUCGCAGCCCCUGUCAGAUUCUGGUAAAUCUGCGAAUUCUGCUGUAUAUCUC	0.08
UAACAGUGGGCCACAGCAGAAGCGUUCACGUCGCAGCCCCUGUCAGAUUCUGGUGAAUCUGCAAAUUCUGCUGUAUAUCUC	0.33
UAACAGUGGGCCACAGCAGAAGCGUUCACGUCGCAGCCCCUGUCAGAUUCUGGUGAAUCUGCGAAUUCUGCUUUAUAUCUC	0.23
UAACAGUGGGCCACAGCAGAAGCGAUCACGUCGCAGCCCCUGUCAGAUUCUGGUGAAUCUGCGAAUUCUGCUGUAUAUCUC	0.15
UAACAGUGGGCCACAGCAGAAGCGCUCACGUCGCAGCCCCUGUCAGAUUCUGGUGAAUCUGCGAAUUCUGCUGUAUAUCUC	0.2

Variant	self-cleavage
UAACAGUGGGCCACAGCAGAAGCGUACACGUCGCAGCCCCUGUCAGAUUCUGGUGAAUCUGCGAAUUCUGCUGUAUAUCUC	0.21
UAACAGUGGGCCACAGCAGAAGCGUCCACGUCGCAGCCCCUGUCAGAUUCUGGUGAAUCUGCGAAUUCUGCUGUAUAUCUC	0.15
UAACAGUGGGCCACAGCAGAAGCGUUCACGACGCAGCCCCUGUCAGAUUCUGGUGAAUCUGCGAAUUCUGCUGUAUAUCUC	0.07
UAACAGUGGGCCACAGCAGAAGCGUUCACGCCGCAGCCCCUGUCAGAUUCUGGUGAAUCUGCGAAUUCUGCUGUAUAUCUC	0.15
UAACAGUGGGCCACAGCAGAAGCGUUCACGUCGCAGCCCCCGUCAGAUUCUGGUGAAUCUGCGAAUUCUGCUGUAUAUCUC	0.21
UAACAGUGGGCCACAGCAGAAGCGUUCACGUCGCAGCCCCUGACAGAUUCUGGUGAAUCUGCGAAUUCUGCUGUAUAUCUC	0.09
UAACAGUGGGCCACAGCAGAAGCGUUCACGUCGCAGCCCCUGCCAGAUUCUGGUGAAUCUGCGAAUUCUGCUGUAUAUCUC	0.38
UAACAGUGGGCCACAGCAGAAGCGUUCACGUCGCAGCCCCUGUCAGAAUCUGGUGAAUCUGCGAAUUCUGCUGUAUAUCUC	0.07
UAACAGUGGGCCACAGCAGAAGCGUUCACGUCGCAGCCCCUGUCAGAUCCUGGUGAAUCUGCGAAUUCUGCUGUAUAUCUC	0.11
UAACAGUGGGCCACAGCAGAAGCGUUCACGUCGCAGCCCCUGUCAGAUUCAGGUGAAUCUGCGAAUUCUGCUGUAUAUCUC	0.21
UAACAGUGGGCCACAGCAGAAGCGUUCACGUCGCAGCCCCUGUCAGAUUCCGGUGAAUCUGCGAAUUCUGCUGUAUAUCUC	0.28
UAACAGUGGGCCACAGCAGAAGCGUUCACGUCGCAGCCCCUGUCAGAUUCGGGUGAAUCUGCGAAUUCUGCUGUAUAUCUC	0.2
UAACAGUGGGCCACAGCAGAAGCGUUCACGUCGCAGCCCCUGUCAGAUUCUGGCGAAUCUGCGAAUUCUGCUGUAUAUCUC	0.24
UAACAGUGGGCCACAGCAGAAGCGUUCACGUCGCAGCCCCUGUCAGAUUCUGGUGAAACUGCGAAUUCUGCUGUAUAUCUC	0.25
UAACAGUGGGCCACAGCAGAAGCGUUCACGUCGCAGCCCCUGUCAGAUUCUGGUGAACCUGCGAAUUCUGCUGUAUAUCUC	0.2
UAACAGUGGGCCACAGCAGAAGCGUUCACGUCGCAGCCCCUGUCAGAUUCUGGUGAAUCCGCGAAUUCUGCUGUAUAUCUC	0.1
UAACAGUGGGCCACAGCAGAAGCGUUCACGUCGCAGCCCCUGUCAGAUUCUGGUGAAUCUGCGAACUCUGCUGUAUAUCUC	0.17
UAACAGUGGGCCACAGCAGAAGCGUUCACGUCGCAGCCCCUGUCAGAUUCUGGUGAAUCUGCGAAUCCUGCUGUAUAUCUC	0.25
UAACAGUGGGCCACAGCAGAAGCGUUCACGUCGCAGCCCCUGUCAGAUUCUGGUGAAUCUGCGAAUUCAGCUGUAUAUCUC	0.2
UAACAGUGGGCCACAGCAGAAGCGUUCACGUCGCAGCCCCUGUCAGAUUCUGGUGAAUCUGCGAAUUCCGCUGUAUAUCUC	0.19
UAACAGUGGGCCACAGCAGAAGCGUUCACGUCGCAGCCCCUGUCAGAUUCUGGUGAAUCUGCGAAUUCUGCCGUAUAUCUC	0.25
UAACAGUGGGCCACAGCAGAAGCGUUCACGUCGCAGCCCCUGUCAGAUUCUGGUGAAUCUGCGAAUUCUGCGGUAUAUCUC	0.07
